{"source": "patent US20180214548A1", "key": {"[1]": {"biological_target": "human PD-1, full length, on cells (human) (UniProt Q15116)", "sequence (Q15116 25-288)": "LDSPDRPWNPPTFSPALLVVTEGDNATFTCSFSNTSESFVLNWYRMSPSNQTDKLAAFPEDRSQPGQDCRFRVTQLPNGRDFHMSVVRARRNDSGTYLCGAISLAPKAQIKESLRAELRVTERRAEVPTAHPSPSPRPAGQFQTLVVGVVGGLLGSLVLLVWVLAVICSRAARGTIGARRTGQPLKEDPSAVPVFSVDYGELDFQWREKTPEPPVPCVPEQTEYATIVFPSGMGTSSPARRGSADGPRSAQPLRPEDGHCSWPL", "assay": "cell-based or functional assay"}, "[2]": {"biological_target": "cyno PD-1^ECD-hFc protein (cyno monkey) (UniProt B0LAJ3)", "sequence (B0LAJ3 entry or part of it limits assumed)": "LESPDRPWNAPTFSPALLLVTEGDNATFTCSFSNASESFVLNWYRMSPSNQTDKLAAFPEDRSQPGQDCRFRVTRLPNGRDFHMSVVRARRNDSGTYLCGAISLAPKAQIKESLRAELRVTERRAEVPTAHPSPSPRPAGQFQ", "assay": "ELISA, coated cyno PD-1ECD-hFc; antibody 0.001 nM"}, "[3]": {"biological_target": "human PD-1^ECD-hFc protein (Immunogen A) (human) (UniProt Q15116)", "sequence (Q15116 25-167)": "as the sequence (B0LAJ3 entry or part of it limits assumed) above, with E2D, A10P, L19V, A35T, R75Q counted along it", "assay": "ELISA, coated human PD-1ECD-hFc; antibody 0.001 nM"}, "[4]": {"biological_target": "cyno PD-1^ECD-hFc protein (cyno monkey) (UniProt B0LAJ3)", "assay": "ELISA, coated cyno PD-1ECD-hFc; antibody 0.0001 nM"}, "[5]": {"biological_target": "human PD-1^ECD-hFc protein (Immunogen A) (human) (UniProt Q15116)", "assay": "ELISA, coated human PD-1ECD-hFc; antibody 0.0001 nM"}, "[6]": {"biological_target": "cyno PD-1^ECD-hFc protein (cyno monkey) (UniProt B0LAJ3)", "assay": "ELISA, coated cyno PD-1ECD-hFc; antibody 0.00001 nM"}, "[7]": {"biological_target": "human PD-1^ECD-hFc protein (Immunogen A) (human) (UniProt Q15116)", "assay": "ELISA, coated human PD-1ECD-hFc; antibody 0.00001 nM"}, "[8]": {"biological_target": "full length human PD-1 on cells (human) (UniProt Q15116)", "sequence (Q15116 25-288 limits assumed)": "as the sequence (Q15116 25-288) above", "assay": "flow cytometry, CHO-K1-hPD-1 cells; antibody 0.01 nM"}, "[9]": {"biological_target": "full length human PD-1 on cells (human) (UniProt Q15116)", "assay": "flow cytometry, CHO-K1-hPD-1 cells; antibody 0.001 nM"}, "[10]": {"biological_target": "full length human PD-1 on cells (human) (UniProt Q15116)", "assay": "flow cytometry, CHO-K1-hPD-1 cells; antibody 0.0001 nM"}, "[11]": {"biological_target": "full length human PD-1 on cells (human) (UniProt Q15116)", "assay": "flow cytometry, CHO-K1-hPD-1 cells; antibody 0.00001 nM"}, "B7-1 (human)": {"biological_target": "B7-1 (human) (UniProt P33681)", "sequence (P33681 35-242 limits assumed)": "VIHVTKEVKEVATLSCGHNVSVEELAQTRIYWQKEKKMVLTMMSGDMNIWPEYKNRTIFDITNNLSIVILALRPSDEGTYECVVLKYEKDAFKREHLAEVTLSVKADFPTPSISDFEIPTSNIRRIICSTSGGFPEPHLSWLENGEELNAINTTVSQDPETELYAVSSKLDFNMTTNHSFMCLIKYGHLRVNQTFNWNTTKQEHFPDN", "assay": "ELISA, coated protein 1 ug/mL; antibody concentration not stated"}, "CD28 (human)": {"biological_target": "CD28 (human) (UniProt P10747)", "sequence (P10747 19-152 limits assumed)": "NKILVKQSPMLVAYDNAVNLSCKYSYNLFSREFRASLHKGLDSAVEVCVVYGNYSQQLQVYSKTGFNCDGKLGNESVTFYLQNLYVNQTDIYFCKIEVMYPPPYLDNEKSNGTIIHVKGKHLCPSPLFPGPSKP", "assay": "ELISA, coated protein 1 ug/mL; antibody concentration not stated"}, "CTLA4 (human)": {"biological_target": "CTLA4 (human) (UniProt P16410)", "sequence (P16410 37-162 limits assumed)": "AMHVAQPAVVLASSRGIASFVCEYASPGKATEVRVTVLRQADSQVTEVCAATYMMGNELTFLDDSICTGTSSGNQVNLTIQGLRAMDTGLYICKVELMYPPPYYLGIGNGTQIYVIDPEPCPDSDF", "assay": "ELISA, coated protein 1 ug/mL; antibody concentration not stated"}, "ICOS (human)": {"biological_target": "ICOS (human) (UniProt Q9Y6W8)", "sequence (Q9Y6W8 21-140 limits assumed)": "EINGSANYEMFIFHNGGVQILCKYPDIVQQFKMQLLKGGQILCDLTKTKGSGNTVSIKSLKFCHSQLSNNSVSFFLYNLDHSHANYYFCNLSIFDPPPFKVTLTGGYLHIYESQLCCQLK", "assay": "ELISA, coated protein 1 ug/mL; antibody concentration not stated"}, "[12]": {"biological_target": "human PD-1^ECD-hFc protein (Immunogen A) (human) (UniProt Q15116)", "assay": "ELISA, coated protein 1 ug/mL; antibody concentration not stated"}, "[13]": {"biological_target": "human PD-1^ECD-hFc protein (Immunogen A) (human) (UniProt Q15116)", "assay": "ELISA, coated PD-1ECD-hFc; biotinylated protein 1 ug/mL"}, "[14]": {"biological_target": "human PD-1^ECD-hFc protein (Immunogen A) (human) (UniProt Q15116)", "assay": "ELISA, coated PD-1ECD-hFc; biotinylated protein 0.2 ug/mL"}, "[15]": {"biological_target": "human PD-1^ECD-hFc protein (Immunogen A) (human) (UniProt Q15116)", "assay": "ELISA, coated PD-1ECD-hFc; biotinylated protein 0.04 ug/mL"}, "[16]": {"biological_target": "human PD-1^ECD-hFc protein (Immunogen A) (human) (UniProt Q15116)", "assay": "ELISA, coated PD-1ECD-hFc; biotinylated protein 0.008 ug/mL"}, "[17]": {"biological_target": "human PD-1^ECD-hFc protein (Immunogen A) (human) (UniProt Q15116)", "assay": "ELISA, coated PD-1ECD-hFc; biotinylated protein 0.0001 ug/mL"}, "[18]": {"biological_target": "human PD-1^ECD-hFc protein (Immunogen A) (human) (UniProt Q15116)", "assay": "ELISA, coated PD-1ECD-hFc; biotinylated protein 0.0003 ug/mL"}, "[19]": {"biological_target": "human PD-1^ECD-hFc protein (Immunogen A) (human) (UniProt Q15116)", "assay": "ELISA, coated PD-1ECD-hFc; biotinylated protein 0.0016 ug/mL"}, "[20]": {"biological_target": "human PD-1^ECD-hFc protein (Immunogen A) (human) (UniProt Q15116)", "assay": "ELISA, coated PD-1ECD-hFc; biotinylated protein 0.00001 ug/mL"}}, "data": [{"substance": "IgG control (human IgG) (antibody)", "values": [{"measurement": "IFN-γ release, mixed lymphocyte reaction (PBMC donor-2), antibody 0.01 µg/mL", "setting": "[1]", "value": 353, "unit": "pg/mL"}, {"measurement": "IFN-γ release, mixed lymphocyte reaction (PBMC donor-2), antibody 0.1 µg/mL", "setting": "[1]", "value": 281, "unit": "pg/mL"}, {"measurement": "IFN-γ release, mixed lymphocyte reaction (PBMC donor-2), antibody 1 µg/mL", "setting": "[1]", "value": 127, "unit": "pg/mL"}, {"measurement": "OD450 nm", "setting": "[2]", "value": 0.106}, {"measurement": "OD450 nm", "setting": "[3]", "value": 0.311}, {"measurement": "OD450 nm", "setting": "[4]", "value": 0.11}, {"measurement": "OD450 nm", "setting": "[5]", "value": 0.298}, {"measurement": "OD450 nm", "setting": "[6]", "value": 0.116}, {"measurement": "OD450 nm", "setting": "[7]", "value": 0.287}, {"measurement": "Mean fluorescence intensity", "setting": "[8]", "value": 2.9}, {"measurement": "Mean fluorescence intensity", "setting": "[9]", "value": 2.9}, {"measurement": "Mean fluorescence intensity", "setting": "[10]", "value": 3.1}, {"measurement": "Mean fluorescence intensity", "setting": "[11]", "value": 2.7}, {"measurement": "OD450 nm", "setting": "B7-1 (human)", "value": 0.07}, {"measurement": "OD450 nm", "setting": "CD28 (human)", "value": 0.064}, {"measurement": "OD450 nm", "setting": "CTLA4 (human)", "value": 0.062}, {"measurement": "OD450 nm", "setting": "ICOS (human)", "value": 0.142}, {"measurement": "OD450 nm", "setting": "[12]", "value": 0.082}]}, {"substance": "control protein (biotinylated non-PD-L1^ECD-hFc)", "values": [{"measurement": "OD450 nm", "setting": "[13]", "value": 0.13}, {"measurement": "OD450 nm", "setting": "[14]", "value": 0.095}, {"measurement": "OD450 nm", "setting": "[15]", "value": 0.09}, {"measurement": "OD450 nm", "setting": "[16]", "value": 0.14}, {"measurement": "OD450 nm", "setting": "[17]", "value": 0.32}, {"measurement": "OD450 nm", "setting": "[18]", "value": 0.195}, {"measurement": "OD450 nm", "setting": "[19]", "value": 0.195}, {"measurement": "OD450 nm", "setting": "[20]", "value": 0.205}]}]}
